Here are results for one molecule from US20230227557A1 (PROMAB BIOTECHNOLOGIES, published 2023).

The test concerns the target T1, PD-L1 on PD-L1-positive cancer cells and tissues (human, UniProt Q9NZQ7 19-290).
T1 construct: whole, on cells; also called PD-L1 tumor antigen; CD274
Kind of test: flow cytometry on cancer cell lines.

T1 sequence (Q9NZQ7 19-290): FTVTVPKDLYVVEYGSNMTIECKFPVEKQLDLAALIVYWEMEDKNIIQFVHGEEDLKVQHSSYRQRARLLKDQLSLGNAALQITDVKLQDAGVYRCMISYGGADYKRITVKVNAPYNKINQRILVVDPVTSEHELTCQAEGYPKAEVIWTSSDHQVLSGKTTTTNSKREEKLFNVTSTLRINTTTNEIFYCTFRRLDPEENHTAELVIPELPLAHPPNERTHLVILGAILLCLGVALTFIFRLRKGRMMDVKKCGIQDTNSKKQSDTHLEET

B1: mouse monoclonal anti-human PD-L1 antibody (hybridoma clone 7D2A10) (antibody, V domains shown)
VH: QIQLVQSGPELKNPGETVKISCKASGYTFTNYGMNWVKQAPGKGLKWMGWINTHTGEPTYADDFKGRFAFSSETSASSAYLQINNLKNDDMATYFCAKGTHREEIPAWFAYWGQGTLVTVSA
VL: DVLMTQTPLSLPVSLGDQASISCRSSQSIVHSNGNTYLEWYLQKPGQSPELLIYKVSNLFSGVPDRFSGSGSGTDFTLKISRVEAEDLGVYYCFQGSHVPPTFGAGTKLELKR
notes: also called Promab anti-PD-L1; PD-L1 monoclonal antibody
Turning to B1, the binding result is “binds”.
